Test results published in patent US20240108653A1 (UNIVERSITY OF UTAH RESEARCH FOUNDATION, published 2024).

B1: Li81 scFv, VLVH orientation (scFv)
scFv: DIQMTQSPATLSLSPGERATLSCRASQSVSSYLAWYQQKPGQAPRLLIYDASNRATGIPARFSGSGSGTDFTLTISSLEPEDFAVYYCQQRSNWPMYTFGQGTKLEIKGGGGSGGGGSGGGGSEVQLLESGGGLVQPGGSLRLSCAASGFTFSAYEMKWVRQAPGKGLEWVSVIGPSGGFTFYADSVKGRFTISRDNSKNTLYLQMNSLRAEDTAVYYCATEGDNDAFDIWGQGTTVTVSS
notes: It was detected with an anti-FLAG/APC antibody, so it carried a FLAG tag; also called Li81 VLVH; LINGO1-specific scFv
B2: Li81 scFv, VHVL orientation (scFv)
scFv: EVQLLESGGGLVQPGGSLRLSCAASGFTFSAYEMKWVRQAPGKGLEWVSVIGPSGGFTFYADSVKGRFTISRDNSKNTLYLQMNSLRAEDTAVYYCATEGDNDAFDIWGQGTTVTVSSGGGGSGGGGSGGGGSDIQMTQSPATLSLSPGERATLSCRASQSVSSYLAWYQQKPGQAPRLLIYDASNRATGIPARFSGSGSGTDFTLTISSLEPEDFAVYYCQQRSNWPMYTFGQGTKLEIK
notes: It was detected with an anti-FLAG/APC antibody, so it carried a FLAG tag; also called Li81 VHVL; LINGO1-specific scFv
B3: Li62 scFv, VLVH orientation (scFv)
scFv: DIQMTQSPSFLSASVGDSVAITCRASQDISRYLAWYQQRPGKAPKLLIYDASNLQTGVPSRFSGSGSGTDFTFTITSLQPEDFGTYYCQQYDTLHPSFGPGTTVDIKGGGGSGGGGSGGGGSEVQLLESGGGLVQPGGSLRLSCAASGFTFSIYPMFWVRQAPGKGLEWVSWIGPSGGITKYADSVKGRFTISRDNSKNTLYLQMNSLRAEDTATYYCAREGHNDWYFDLWGRGTLVTVSS
notes: It was detected with an anti-FLAG/APC antibody, so it carried a FLAG tag; also called Li62 VLVH; LINGO1-specific scFv
B4: Li62 scFv, VHVL orientation (scFv)
scFv: EVQLLESGGGLVQPGGSLRLSCAASGFTFSIYPMFWVRQAPGKGLEWVSWIGPSGGITKYADSVKGRFTISRDNSKNTLYLQMNSLRAEDTATYYCAREGHNDWYFDLWGRGTLVTVSSGGGGSGGGGSGGGGSDIQMTQSPSFLSASVGDSVAITCRASQDISRYLAWYQQRPGKAPKLLIYDASNLQTGVPSRFSGSGSGTDFTFTITSLQPEDFGTYYCQQYDTLHPSFGPGTTVDIK
notes: It was detected with an anti-FLAG/APC antibody, so it carried a FLAG tag; also called Li62 VHVL; LINGO1-specific scFv

Target: T1, Leucine-Rich Repeat and Ig Domain Protein 1 (LINGO1) (UniProt Q96FE5 42-620, limits assumed)
T1 construct: whole, on cells; It is endogenous on Ewing sarcoma cell lines and transduced in K562 cells
T1 sequence (looked up): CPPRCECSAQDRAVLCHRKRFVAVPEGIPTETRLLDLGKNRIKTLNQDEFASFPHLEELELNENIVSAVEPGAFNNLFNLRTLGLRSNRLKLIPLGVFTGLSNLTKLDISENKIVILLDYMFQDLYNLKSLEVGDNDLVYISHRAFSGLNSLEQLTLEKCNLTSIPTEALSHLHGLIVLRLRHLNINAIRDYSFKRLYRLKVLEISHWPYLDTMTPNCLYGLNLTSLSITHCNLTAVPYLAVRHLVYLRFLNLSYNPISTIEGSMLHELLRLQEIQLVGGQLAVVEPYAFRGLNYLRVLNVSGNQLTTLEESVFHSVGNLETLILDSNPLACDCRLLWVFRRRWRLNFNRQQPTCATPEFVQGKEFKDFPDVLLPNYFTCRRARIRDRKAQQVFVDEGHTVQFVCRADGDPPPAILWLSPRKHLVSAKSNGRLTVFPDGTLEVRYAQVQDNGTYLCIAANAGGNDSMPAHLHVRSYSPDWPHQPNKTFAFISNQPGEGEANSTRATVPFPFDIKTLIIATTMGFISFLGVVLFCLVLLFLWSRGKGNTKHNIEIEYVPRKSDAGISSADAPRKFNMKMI
Experiment: flow cytometry on Ewing sarcoma cell lines; scFv detected with anti-FLAG/APC secondary antibody
Protocol: FIGS. 4A-4I show LINGO1-specific CAR T cells show cytotoxic activity against Ewing sarcoma. (FIG. 4A) mRNA expression of LINGO1 and GAPDH housekeeping gene in Ewing sarcoma cell lines and healthy brain tissue as determined by RT-PCR. (FIG. 4B) Schema of CAR construct and four LINGO1-specific scFv domains (FIG. 4C) Binding of LINGO1-specific scFvs at 5 µg/ml and secondary staining with an anti-FLAG/APC antibody (clone: L5). against Ewing sarcoma cell lines as determined by flow cytometry. Secondary antibody alone is shown in grey. (FIG. 4D) LINGO1 CAR surface expression on primary T cells after staining with an anti-HA/APC antibody as determined by flow cytometry. (FIG. 4E) IFNγ secretion as determined by ELISA and (FIG. 4F) anti-tumor activity as determined by luminescence-based cytotoxicity assay of CAR T cells expressing LINGO1 CAR variants after 24 h co-culture with A673 cells at an effector-target ratio of 1:1. (FIG. 4G) Expansion of LINGO1 CAR T cells based on Li81 VLVH and T cels expressing a CAR without a binding domain (ΔscFv). (FIG. 4H) IFNγ and IL2 production as determined by ELISA and (FIG. 4I) anti-tumor activity as determined by luminescence-based cytotoxicity assay by LINGO1 CAR T cells after 24 h co-culture with Ewing sarcoma cell lines at different effector-target ratios. Data represent mean±SD from 3 technical replicates. Statistical significance was determined by two-sided Student's t test.
CAR T cells targeting LINGO1 for the treatment of Ewing sarcoma were developed.

Binding result, binds:
B1
B2
B3
B4
